According to PMC6888645:
Values belong to the substance of their own block, whether it stands above or below them.

Tests used:
[1] = target: DD-N-CAP2, human CAP2 helical folded domain with the coiled coil (a.a. 1-29) replaced by the dimerization domain 2L4HC2_23 (human); experiment: native MS; 100-300 pmole protein (as monomer), online buffer exchange to 200 mM ammonium acetate pH 6.8, Orbitrap EMR, deconvolution with UniDec
[2] = target: DD-N-CAP2, human CAP2 helical folded domain with the coiled coil (a.a. 1-29) replaced by the dimerization domain 2L4HC2_23 (human); experiment: AUC; sedimentation velocity (SV-AUC), 50 µM protein, 20 °C, 50,000 rpm, absorbance at 280 nm, 20 mM Tris-HCl pH 8.0, SEDFIT c(S) model; buffer (Tris-HCl vs PBS) and salt did not affect the oligomerization state
[3] = target: DD-N-CAP1, human CAP1 helical folded domain with the coiled coil (a.a. 1-29) replaced by the dimerization domain 2L4HC2_23 (human); experiment: native MS; 100-300 pmole protein (as monomer), online buffer exchange to 200 mM ammonium acetate pH 6.8, Orbitrap EMR, deconvolution with UniDec
[4] = target: DD-N-CAP1, human CAP1 helical folded domain with the coiled coil (a.a. 1-29) replaced by the dimerization domain 2L4HC2_23 (human); experiment: AUC; sedimentation velocity (SV-AUC), 50 µM protein, 20 °C, 50,000 rpm, absorbance at 280 nm, 20 mM Tris-HCl pH 8.0, SEDFIT c(S) model; buffer (Tris-HCl vs PBS) and salt did not affect the oligomerization state
[5] = target: TD-N-CAP1, human CAP1 helical folded domain with the coiled coil (a.a. 1-29) replaced by the trimerization domain 2L6HC3_6 (human); experiment: native MS; 100-300 pmole protein (as monomer), online buffer exchange to 200 mM ammonium acetate pH 6.8, Orbitrap EMR, deconvolution with UniDec
[6] = target: TD-N-CAP1, human CAP1 helical folded domain with the coiled coil (a.a. 1-29) replaced by the trimerization domain 2L6HC3_6 (human); experiment: AUC; sedimentation velocity (SV-AUC), 50 µM protein, 20 °C, 50,000 rpm, absorbance at 280 nm, 20 mM Tris-HCl pH 8.0, SEDFIT c(S) model; buffer (Tris-HCl vs PBS) and salt did not affect the oligomerization state
[7] = target: TD-N-CAP2, human CAP2 helical folded domain with the coiled coil (a.a. 1-29) replaced by the trimerization domain 2L6HC3_6 (human); experiment: native MS; 100-300 pmole protein (as monomer), online buffer exchange to 200 mM ammonium acetate pH 6.8, Orbitrap EMR, deconvolution with UniDec
[8] = target: TD-N-CAP2, human CAP2 helical folded domain with the coiled coil (a.a. 1-29) replaced by the trimerization domain 2L6HC3_6 (human); experiment: AUC; sedimentation velocity (SV-AUC), 50 µM protein, 20 °C, 50,000 rpm, absorbance at 280 nm, 20 mM Tris-HCl pH 8.0, SEDFIT c(S) model; buffer (Tris-HCl vs PBS) and salt did not affect the oligomerization state

stoichiometry N [1]: 2 | stoichiometry N [2]: 2
Substance: DD-N-CAP2, human CAP2 helical folded domain with the coiled coil (a.a. 1-29) replaced by the dimerization domain 2L4HC2_23

stoichiometry N [3]: 2 | stoichiometry N [4]: 2
Substance: DD-N-CAP1, human CAP1 helical folded domain with the coiled coil (a.a. 1-29) replaced by the dimerization domain 2L4HC2_23

stoichiometry N [5]: 3 | stoichiometry N [6]: 3
Substance: TD-N-CAP1, human CAP1 helical folded domain with the coiled coil (a.a. 1-29) replaced by the trimerization domain 2L6HC3_6

stoichiometry N [7]: 3 | stoichiometry N [8]: 3
Substance: TD-N-CAP2, human CAP2 helical folded domain with the coiled coil (a.a. 1-29) replaced by the trimerization domain 2L6HC3_6
